T1: Fc tagged human TNFR2 (Sino Biological) (human, UniProt P20333 23-257)
T1 construct: Bought reagent; also called hTNFR2; hTNFR2-Fc; not shown: Fc tag of the bought protein
T1 sequence (looked up): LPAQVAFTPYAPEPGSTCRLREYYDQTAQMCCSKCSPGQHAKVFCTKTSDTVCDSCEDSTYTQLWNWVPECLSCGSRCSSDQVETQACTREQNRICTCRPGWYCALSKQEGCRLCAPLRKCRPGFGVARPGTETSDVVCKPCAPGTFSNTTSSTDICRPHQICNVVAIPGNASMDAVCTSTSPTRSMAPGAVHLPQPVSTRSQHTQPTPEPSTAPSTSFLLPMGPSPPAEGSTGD

T2: Fc tagged mouse TNFR2 (Sino Biological) (mouse, UniProt P25119 23-258)
T2 construct: Bought reagent; also called mTNFR2; mTNF2; not shown: Fc tag of the bought protein
T2 sequence (looked up): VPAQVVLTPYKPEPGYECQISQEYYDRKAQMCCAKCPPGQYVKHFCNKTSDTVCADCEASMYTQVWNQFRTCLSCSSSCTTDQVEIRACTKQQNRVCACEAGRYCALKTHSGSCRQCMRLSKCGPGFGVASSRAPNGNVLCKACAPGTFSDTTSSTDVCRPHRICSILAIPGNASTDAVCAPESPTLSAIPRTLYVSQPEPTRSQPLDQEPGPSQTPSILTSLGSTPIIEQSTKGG

T3: Fc tagged mouse TNFR1 (Sino Biological) (mouse, UniProt P25118 22-212, limits assumed)
T3 construct: Bought reagent; also called mTNFR1; mTNFR1-Fc; not shown: Fc tag of the bought protein
T3 sequence (looked up): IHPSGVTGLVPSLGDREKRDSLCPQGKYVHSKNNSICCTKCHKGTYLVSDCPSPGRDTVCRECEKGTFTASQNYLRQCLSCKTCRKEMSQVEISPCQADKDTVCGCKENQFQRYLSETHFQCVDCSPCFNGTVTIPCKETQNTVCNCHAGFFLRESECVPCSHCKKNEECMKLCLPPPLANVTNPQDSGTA

T4: Fc tagged human TNFR1 (Sino Biological) (human, UniProt P19438 22-211, limits assumed)
T4 construct: Bought reagent; also called hTNFR1; hTNFR1-Fc; not shown: Fc tag of the bought protein
T4 sequence (looked up): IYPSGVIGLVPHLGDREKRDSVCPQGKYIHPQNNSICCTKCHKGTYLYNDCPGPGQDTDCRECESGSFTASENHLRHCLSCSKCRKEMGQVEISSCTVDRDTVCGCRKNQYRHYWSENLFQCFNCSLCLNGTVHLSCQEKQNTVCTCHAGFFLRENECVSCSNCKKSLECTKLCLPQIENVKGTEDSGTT

B1: phage displaying mTNF (gene III fusion, pANT65) (other, mouse, UniProt P06804 80-235, looked up)
chain: LRSSSQNSSDKPVAHVVANHQVEEQLEWLSQRANALLANGMDLKDNQLVVPADGLYLVYSQVLFKGQGCPDYVLLTHTVSRFAISYQEKVNLLSAVKSPCPKDTPEGAELKPWYEPIYLGGVFQLEKGDQLSAEVNLPKYLDFAESGQVYFGVIAL
notes: also called mTNF (phage); not shown: FLAG tag, His6 tag and phage gene III protein of pANT65
B2: TNF variant C9 (ligand)
chain: VRSSSRTPSDKPVAHVVANPQAEGQLQWINGRANALLANGVELRDNQLVVPSEGLYLIYSQVLFKGQGCPSTHVLLTHTISRIAVTYQTKVNLLSAIKSPCQRETPEGAEAKPWYEPIYLGGVFQLEKGDRLSAEINRPDYLDDADSGQVYFGIIAL
notes: Human TNF variant from Library 2, AVTYQT at positions 84-89; not shown: C-terminal FLAG tag and His6 tag from vector pANT65

What was measured:
[1] = target: T1, Fc tagged human TNFR2 (Sino Biological); test: phage binding test on Fc tagged receptor
[2] = target: T2, Fc tagged mouse TNFR2 (Sino Biological); test: phage binding test on Fc tagged receptor
[3] = target: T1, Fc tagged human TNFR2 (Sino Biological); test: SPR, Biacore T200 multi cycle kinetics, 1:1 model; ** = a residual amount of binding is observed but 1 to 1 model is a poor fit
Protocol: (§1) Multi cycle kinetics analysis of binding to hTNFR1, hTNFR2, mTNFR1 and mTNFR2 was performed on the 10 lead variants using a Biacore T200 (serial no. 1909913) instrument running Biacore T200 Evaluation Software V3.0.1 (Uppsala, Sweden) to characterise further the binding to these receptors.
As with the single cycle kinetics, receptor binding was assessed in two separate experiments. In the first set of experiments binding to hTNFR1 (Fc2), hTNFR2 (Fc3) and mTNFR1 (Fc4) was assessed. In the second set of experiments the extent of mTNF2 (Fc4) binding was assessed using hTNFR1 (Fc2) and hTNFR2 (Fc3) as controls. All receptors were diluted in running buffer to a concentration of ˜4 μg/mL and at the start of each cycle loaded onto Fc2, Fc3 and Fc4 of a Protein A CM5 chip and captured at a flow rate of 10 μL/min to give an RU of ˜40-100. The surface was then allowed to stabilise. All kinetic data was obtained using a flow rate of 75 μl/min to minimise any potential mass transfer effects. […] The association phase of TNF was monitored for 280 seconds and the dissociation phase was measured for 2100 seconds. […] Regeneration of the Protein A surface was conducted using two injections of 10 mM glycine-HCL pH 1.5 at the end of each cycle. […]

[4] = target: T2, Fc tagged mouse TNFR2 (Sino Biological); test: SPR (Biacore T200) single cycle kinetics, Fc-tagged receptor captured on Protein A chip, TNF protein as analyte at 1.67-15 nM
Protocol: (§2) Single cycle kinetic analysis was performed using a Biacore T200 (serial no. 1909913) running Biacore T200 Evaluation Software V2.0.1 (Uppsala, Sweden). All experiments were run at 25° C. with HBS-P+ running buffer (pH 7.4) (GE Healthcare, Little Chalfont, UK).
(§3) Due to the limit in the number of available flow cells for analysis (three Fc per analysis, Fc2, Fc3 and Fc4, with Fc1 always being used as blank reference for non-specific subtraction), receptor binding was assessed in two separate overlapping runs using either: hTNFR1 (Fc2), hTNFR2 (Fc3) and mTNFR1 (Fc4), or; hTNFR1 (Fc2), […] and mTNFR2 (Fc4). Receptors were diluted in running buffer to a concentration of ˜4 μg/mL and at the start of each cycle loaded onto Fc2, Fc3 and Fc4 of a Protein A chip (GE Healthcare, Little Chalfont, UK) at a flow rate of 10 μL/min to give an RU of 40-100. The surface was then allowed to stabilise. Single cycle kinetic data was obtained at a flow rate of 45 μL/min. […] The association phase for the three injections of increasing concentrations of TNF was monitored for 240 seconds and a single dissociation phase was measured for 2700 seconds following the last injection of TNF. Regeneration of the Protein A surface was conducted using 10 mM glycine-HCl pH 1.5. The signal from the reference channel Fc1 (no receptor) was subtracted from that of Fc2, Fc3 and Fc4 to correct for differences in non-specific binding to a reference surface.
Controls were used to ensure the integrity of the receptors during the Biacore run.

[5] = target: T3, Fc tagged mouse TNFR1 (Sino Biological); test: SPR, Biacore T200 single cycle kinetics, receptor-Fc captured on Protein A chip, TNF 1.67-15 nM
Protocol: as §2, §3

[6] = target: T4, Fc tagged human TNFR1 (Sino Biological); test: as above
Protocol: as §2, §3

[7] = target: T3, Fc tagged mouse TNFR1 (Sino Biological); test: SPR, Biacore T200 multi cycle kinetics, receptor-Fc captured on Protein A chip, TNF 1.25-40 nM, 1:1 model
Protocol: as §1
(§4) As with the single cycle kinetics, receptor binding was assessed in two separate experiments. In the first set of experiments binding to hTNFR1 (Fc2), hTNFR2 (Fc3) and mTNFR1 (Fc4) was assessed. In the second set of experiments the extent of mTNF2 (Fc4) binding was assessed using hTNFR1 (Fc2) and hTNFR2 (Fc3) as controls. All receptors were diluted in running buffer to a concentration of ˜4 μg/mL and at the start of each cycle loaded onto Fc2, Fc3 and Fc4 of a Protein A CM5 chip and captured at a flow rate of 10 μL/min to give an RU of ˜40-100. The surface was then allowed to stabilise. All kinetic data was obtained using a flow rate of 75 μl/min to minimise any potential mass transfer effects. […] The association phase of TNF was monitored for 280 seconds and the dissociation phase was measured for 2100 seconds. […] Regeneration of the Protein A surface was conducted using two injections of 10 mM glycine-HCL pH 1.5 at the end of each cycle. The signal from the reference channel Fc1 was subtracted from that of Fc2, Fc3 and Fc4 to correct for differences in non-specific binding to a reference surface, and a global Rmax parameter was used in the 1-to-1 binding model.

[8] = target: T4, Fc tagged human TNFR1 (Sino Biological); test: as above
Protocol: as §1, §4

Binder | binding result [1] | binding result [2] | Kd [3] | binding result [4] | Kd [5] | Kd [6] | Kd [7] | Kd [8]
B1 | binds | binds | – | – | – | – | – | –
B2 | – | – | 289000 pM | no binding (tested: 15 nM) | 607 pM | 24.8 pM | 1130 pM | 71.7 pM

From patent US20220387557A1 (OXFORD UNIVERSITY INNOVATION, published 2022)
